Test results from patent US7279304B2, “Methods for preparation of macrocyclic molecules and macrocyclic molecules prepared thereby” (President and Fellows of Harvard College, priority 2000, dated 2007).

Columns and labels:
Experiment in all cases: purified protein, by the assay type
Format in all cases: biochemical
[1] = substrate: CC(=O)NCCSC(=O)[C@H](CC(C)C)NC(=O)[C@H](CCCN)NC(=O)[C@@H](NC(=O)[C@H](Cc1ccc(O)cc1)NC(=O)[C@H](CCC(N)=O)NC(=O)[C@H](CC(N)=O)NC(=O)[C@@H](C)NC(=O)[C@H](Cc1ccccc1)NC(=O)[C@@H]1CCCN1C(=O)[C@H](N)Cc1ccccc1)C(C)C; conditions: other: Table 1; macrocyclization of peptide-SNAC substrate; 25 mM MOPS, pH 7.0
Protocol: (§1) Macrocyclization reactions were carried out in 25 mM MOPS, pH 7.0 in a total volume of 400 μL. Reactions were initiated by addition of TycC TE and quenched at various time points by the addition of 25 μL 1.7% TFA/water, flash frozen in liquid nitrogen and stored at −80° C. (for Ex. 13, reactions were quenched by the addition of sodium phosphate, pH 5.3, to 100 mM). The reactions were then thawed, 85 μL acetonitrile added, and analyzed by analytical HPLC with monitoring at 220 nm (20% to 80% acetonitrile in 0.1% TFA/water, or in 25 mM potassium phosphate, pH 5.3 for Ex. 13, over 35 minutes, Vydac protein and peptide C18 column). Initial rates were calculated using 1 minute time points. Peptide-SNAC and reaction product concentrations were determined for all Tyr-containing peptides based on the estimated extinction coefficient ε (280 nm)=1,280 M^−1 cm^−1, which agrees with the experimentally determined ε (280 nm) of Ex. 1. For peptide-SNACs not containing Tyr, ε (220 nm) was determined experimentally, and concentrations of corresponding cyclic products determined by assuming equal ε (220 nm) values for the peptide-SNAC and cyclic product.

[2] = substrate: CC(=O)NCCSC(=O)[C@H](CC(C)C)NC(=O)[C@H](CCCN)NC(=O)[C@@H](NC(=O)[C@H](C)NC(=O)[C@H](CCC(N)=O)NC(=O)[C@H](CC(N)=O)NC(=O)[C@@H](Cc1ccccc1)NC(=O)[C@H](Cc1ccccc1)NC(=O)[C@@H]1CCCN1C(=O)[C@H](N)Cc1ccccc1)C(C)C; conditions: other: Table 1; macrocyclization of peptide-SNAC substrate; 25 mM MOPS, pH 7.0
Protocol: as §1

[3] = substrate: CC(=O)NCCSC(=O)[C@H](CC(C)C)NC(=O)[C@H](CCCN)NC(=O)[C@@H](NC(=O)[C@H](CC(C)C)NC(=O)[C@@H]1CCCN1C(=O)[C@@H](Cc1ccccc1)NC(=O)[C@H](CC(C)C)NC(=O)[C@H](CCCN)NC(=O)[C@@H](NC(=O)[C@H](CC(C)C)NC(=O)[C@@H]1CCCN1C(=O)[C@H](N)Cc1ccccc1)C(C)C)C(C)C; conditions: other: Table 2; cyclization of peptide-SNAC substrates of 6-14 amino acids
Protocol: as §1

[4] = substrate: CC(=O)NCCSC(=O)[C@H](CC(C)C)NC(=O)[C@H](CCCN)NC(=O)[C@@H](NC(=O)[C@H](Cc1ccc(O)cc1)NC(=O)[C@H](CCC(N)=O)NC(=O)[C@H](CC(N)=O)NC(=O)[C@@H](Cc1ccccc1)NC(=O)[C@H](C)NC(=O)[C@@H]1CCCN1C(=O)[C@H](N)Cc1ccccc1)C(C)C; conditions: other: Table 1; macrocyclization of peptide-SNAC substrate; 25 mM MOPS, pH 7.0
Protocol: as §1

[5] = substrate: CC(=O)NCCSC(=O)[C@H](CC(C)C)NC(=O)[C@H](CCCN)NC(=O)[C@@H]1CCCN1C(=O)[C@@H](Cc1ccccc1)NC(=O)[C@H](CC(C)C)NC(=O)[C@H](CCCN)NC(=O)[C@@H]1CCCN1C(=O)[C@H](N)Cc1ccccc1; conditions: other: Table 2; cyclization of peptide-SNAC substrates of 6-14 amino acids
Protocol: as §1

B1: TycC TE (excised TE domain protein from the tyrocidine NRPS) (Brevibacillus parabrevis) (protein)
chain: FESRYGTAILLNQETARNVFCFTPIGAQSVYYQKLAAEIQGVSLYSFDFIQDDNRMEQYIAAITAIDPSGPYTLMGYSSGGNLAFEVAKELEERGYGVTDIILFDSYWKDKAIERTVAETENDIAQLFAEIGENTEMFNMTQEDFQLYAANEFVKQSFVRKTVSYVMFHNNLVNTGMTTAAIHLIQSELEADEEAPVAAKWNESAWANATQRLLTYSGHGIHSRMLAGDYASQNASILQNILQELFILK
notes: excised TE domain protein from the tyrocidine NRPS (TycC TE); made in house
Which results are given for B1?
Km [1]: 6 µM; Km [2]: 15 µM; Km [3]: 6 µM; kcat [3]: 0.367 s⁻¹; Km [4]: 6 µM; Km [5]: 3 µM; kcat [5]: 0.283 s⁻¹
